Laboratory results: the supplement of paper PMC9112550, “Optimization of the antimicrobial peptide Bac7 by deep mutational scanning” (BMC Biology, 2022)

System: Escherichia coli TOP10
Test: shrunken log2 fold change of peptide-encoding DNA abundance (4.5 h post-induction vs induction); higher = less antimicrobial activity (less host growth inhibition)
Conditions: time post-induction: 4.5 h; library: site-saturation at positions 5, 18, 19, 20
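Further: peptides expressed intracellularly from a pBAD plasmid library in pooled LB shake-flask culture, induced with 0.3% L-arabinose, DNA abundance read by NGS, three biological replicates, DESeq2 with apeglm shrinkage.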

## RRIRKRPPRLPRPRPRPITEPRP
  shrunken log2 fold change: -0.147

## RRIRRRPPRLPRPRPRPATTPRP
  shrunken log2 fold change: 0.092

## RRIRQRPPRLPRPRPRPCVHPRP
  shrunken log2 fold change: -0.629

## RRIRSRPPRLPRPRPRPVPMPRP
  shrunken log2 fold change: 1.32

## RRIRDRPPRLPRPRPRPGYEPRP
  shrunken log2 fold change: -0.0119

## RRIRWRPPRLPRPRPRPELEPRP
  shrunken log2 fold change: 1.35

## RRIRERPPRLPRPRPRPNLMPRP
  shrunken log2 fold change: -0.665

## RRIRIRPPRLPRPRPRPHCAPRP
  shrunken log2 fold change: -0.0649

## RRIRHRPPRLPRPRPRPCGSPRP
  shrunken log2 fold change: -0.153

## RRIRGRPPRLPRPRPRPWGDPRP
  shrunken log2 fold change: 0.41

## RRIRMRPPRLPRPRPRPPRRPRP
  shrunken log2 fold change: 1.47

## RRIRPRPPRLPRPRPRPVVDPRP
  shrunken log2 fold change: -0.107

## RRIRLRPPRLPRPRPRPKSFPRP
  shrunken log2 fold change: -0.0686

## RRIRDRPPRLPRPRPRPGADPRP
  shrunken log2 fold change: 0.655

## RRIRVRPPRLPRPRPRPHHMPRP
  shrunken log2 fold change: -0.26

## RRIRFRPPRLPRPRPRPEQHPRP
  shrunken log2 fold change: 1.53

## RRIRYRPPRLPRPRPRPNGKPRP
  shrunken log2 fold change: -0.186

## RRIRKRPPRLPRPRPRPMVRPRP
  shrunken log2 fold change: 0.00145

## RRIRWRPPRLPRPRPRPRNVPRP
  shrunken log2 fold change: -0.0411

## RRIRQRPPRLPRPRPRPSSFPRP
  shrunken log2 fold change: -0.308

## RRIRGRPPRLPRPRPRPQCHPRP
  shrunken log2 fold change: 0.48

## RRIRNRPPRLPRPRPRPMMYPRP
  shrunken log2 fold change: 0.025

## RRIRCRPPRLPRPRPRPTAFPRP
  shrunken log2 fold change: 0.0759

## RRIRGRPPRLPRPRPRPTERPRP
  shrunken log2 fold change: 0.675

## RRIRLRPPRLPRPRPRPRDSPRP
  shrunken log2 fold change: -0.00311

## RRIRERPPRLPRPRPRPSCYPRP
  shrunken log2 fold change: -0.941

## RRIRIRPPRLPRPRPRPEFEPRP
  shrunken log2 fold change: -0.0399

## RRIRARPPRLPRPRPRPFIVPRP
  shrunken log2 fold change: -0.286

## RRIRERPPRLPRPRPRPDLFPRP
  shrunken log2 fold change: 0.462

## RRIRHRPPRLPRPRPRPKCIPRP
  shrunken log2 fold change: -0.021

## RRIRPRPPRLPRPRPRPKETPRP
  shrunken log2 fold change: 0.0101

## RRIRLRPPRLPRPRPRPSQCPRP
  shrunken log2 fold change: -0.114

## RRIRNRPPRLPRPRPRPVYLPRP
  shrunken log2 fold change: -0.216

## RRIRLRPPRLPRPRPRPLIWPRP
  shrunken log2 fold change: 0.0251

## RRIRLRPPRLPRPRPRPHDTPRP
  shrunken log2 fold change: -0.18

## RRIRARPPRLPRPRPRPNHQPRP
  shrunken log2 fold change: 0.243

## RRIRGRPPRLPRPRPRPWQHPRP
  shrunken log2 fold change: -0.0318

## RRIRPRPPRLPRPRPRPHFVPRP
  shrunken log2 fold change: -0.144

## RRIRARPPRLPRPRPRPGHVPRP
  shrunken log2 fold change: 0.0499

## RRIRERPPRLPRPRPRPWNTPRP
  shrunken log2 fold change: -0.00122

## RRIRKRPPRLPRPRPRPNKMPRP
  shrunken log2 fold change: -0.231

## RRIRSRPPRLPRPRPRPVNMPRP
  shrunken log2 fold change: -0.103

## RRIRFRPPRLPRPRPRPFLRPRP
  shrunken log2 fold change: -0.313

## RRIRVRPPRLPRPRPRPHNPPRP
  shrunken log2 fold change: -0.272

## RRIRWRPPRLPRPRPRPDCDPRP
  shrunken log2 fold change: 0.799

## RRIRVRPPRLPRPRPRPCADPRP
  shrunken log2 fold change: -0.101

## RRIRHRPPRLPRPRPRPVTLPRP
  shrunken log2 fold change: -0.175

## RRIRIRPPRLPRPRPRPNCMPRP
  shrunken log2 fold change: -0.287

## RRIRCRPPRLPRPRPRPNEQPRP
  shrunken log2 fold change: 0.256

## RRIRSRPPRLPRPRPRPPCDPRP
  shrunken log2 fold change: 0.0563

## RRIRDRPPRLPRPRPRPHHFPRP
  shrunken log2 fold change: -0.49

## RRIRLRPPRLPRPRPRPPHTPRP
  shrunken log2 fold change: 0.26

## RRIRYRPPRLPRPRPRPPYPPRP
  shrunken log2 fold change: -0.257

## RRIRFRPPRLPRPRPRPAKQPRP
  shrunken log2 fold change: -0.0234

## RRIRARPPRLPRPRPRPTKSPRP
  shrunken log2 fold change: 0.032

## RRIRIRPPRLPRPRPRPLLCPRP
  shrunken log2 fold change: -0.462

## RRIRMRPPRLPRPRPRPWEIPRP
  shrunken log2 fold change: -0.00146

## RRIRNRPPRLPRPRPRPMHSPRP
  shrunken log2 fold change: -0.0169

## RRIRFRPPRLPRPRPRPQEGPRP
  shrunken log2 fold change: -0.00638

## RRIRVRPPRLPRPRPRPMAQPRP
  shrunken log2 fold change: 0.149

## RRIRARPPRLPRPRPRPLQFPRP
  shrunken log2 fold change: 0.0375

## RRIRIRPPRLPRPRPRPLQGPRP
  shrunken log2 fold change: -0.182

## RRIRDRPPRLPRPRPRPKLNPRP
  shrunken log2 fold change: 0.0523

## RRIRKRPPRLPRPRPRPNFRPRP
  shrunken log2 fold change: 0.155

## RRIRLRPPRLPRPRPRPWDGPRP
  shrunken log2 fold change: -0.153

## RRIRFRPPRLPRPRPRPDFFPRP
  shrunken log2 fold change: -0.027

## RRIRLRPPRLPRPRPRPRWMPRP
  shrunken log2 fold change: 0.162

## RRIRRRPPRLPRPRPRPYDEPRP
  shrunken log2 fold change: -0.302

## RRIRERPPRLPRPRPRPSDPPRP
  shrunken log2 fold change: -0.417

## RRIRFRPPRLPRPRPRPYKPPRP
  shrunken log2 fold change: 0.108

## RRIRNRPPRLPRPRPRPRGEPRP
  shrunken log2 fold change: -0.029

## RRIRIRPPRLPRPRPRPTVGPRP
  shrunken log2 fold change: 0.152

## RRIRNRPPRLPRPRPRPQSVPRP
  shrunken log2 fold change: -0.0373

## RRIRQRPPRLPRPRPRPKVCPRP
  shrunken log2 fold change: -0.193

## RRIRIRPPRLPRPRPRPRWVPRP
  shrunken log2 fold change: 0.171

## RRIRKRPPRLPRPRPRPITRPRP
  shrunken log2 fold change: 0.132

## RRIRWRPPRLPRPRPRPGSVPRP
  shrunken log2 fold change: 0.306

## RRIRKRPPRLPRPRPRPNPPPRP
  shrunken log2 fold change: 0.0342

## RRIRMRPPRLPRPRPRPRIDPRP
  shrunken log2 fold change: 0.0569

## RRIRARPPRLPRPRPRPYGQPRP
  shrunken log2 fold change: -0.163

## RRIRVRPPRLPRPRPRPSWVPRP
  shrunken log2 fold change: -0.32

## RRIRSRPPRLPRPRPRPKKYPRP
  shrunken log2 fold change: -0.3

## RRIRERPPRLPRPRPRPYNMPRP
  shrunken log2 fold change: 0.0461

## RRIRVRPPRLPRPRPRPANNPRP
  shrunken log2 fold change: -0.272

## RRIRLRPPRLPRPRPRPYVWPRP
  shrunken log2 fold change: -0.872

## RRIRMRPPRLPRPRPRPDPQPRP
  shrunken log2 fold change: 0.593

## RRIRGRPPRLPRPRPRPLPCPRP
  shrunken log2 fold change: 0.51

## RRIRSRPPRLPRPRPRPMACPRP
  shrunken log2 fold change: -0.342

## RRIRIRPPRLPRPRPRPAWWPRP
  shrunken log2 fold change: 0.0406

## RRIRSRPPRLPRPRPRPAEFPRP
  shrunken log2 fold change: 0.00621

## RRIRRRPPRLPRPRPRPKINPRP
  shrunken log2 fold change: -0.123

## RRIRARPPRLPRPRPRPIELPRP
  shrunken log2 fold change: 0.00186

## RRIRHRPPRLPRPRPRPMMSPRP
  shrunken log2 fold change: 0.0372

## RRIRNRPPRLPRPRPRPPIFPRP
  shrunken log2 fold change: 0.0391

## RRIRNRPPRLPRPRPRPWSMPRP
  shrunken log2 fold change: -0.0638

## RRIRHRPPRLPRPRPRPHDWPRP
  shrunken log2 fold change: 0.0241

## RRIRLRPPRLPRPRPRPFSQPRP
  shrunken log2 fold change: -0.0811

## RRIRNRPPRLPRPRPRPFLKPRP
  shrunken log2 fold change: -0.294

## RRIRLRPPRLPRPRPRPWPYPRP
  shrunken log2 fold change: -0.127

## RRIRYRPPRLPRPRPRPTCLPRP
  shrunken log2 fold change: -0.821

## RRIRIRPPRLPRPRPRPVSFPRP
  shrunken log2 fold change: 0.00232

## RRIRLRPPRLPRPRPRPRKGPRP
  shrunken log2 fold change: 0.0226

## RRIRLRPPRLPRPRPRPLCLPRP
  shrunken log2 fold change: -0.392

## RRIRWRPPRLPRPRPRPMSEPRP
  shrunken log2 fold change: 0.0832

## RRIRNRPPRLPRPRPRPNFVPRP
  shrunken log2 fold change: -0.317

## RRIRFRPPRLPRPRPRPADQPRP
  shrunken log2 fold change: -0.144

## RRIRFRPPRLPRPRPRPESHPRP
  shrunken log2 fold change: -0.154

## RRIRNRPPRLPRPRPRPDQIPRP
  shrunken log2 fold change: -0.0823

## RRIRHRPPRLPRPRPRPKTMPRP
  shrunken log2 fold change: -0.0912

## RRIRARPPRLPRPRPRPSEYPRP
  shrunken log2 fold change: -0.264

## RRIRQRPPRLPRPRPRPKTCPRP
  shrunken log2 fold change: -0.0119

## RRIRFRPPRLPRPRPRPLWYPRP
  shrunken log2 fold change: -0.721

## RRIRNRPPRLPRPRPRPSRNPRP
  shrunken log2 fold change: 0.0074

## RRIRDRPPRLPRPRPRPCPGPRP
  shrunken log2 fold change: -0.0964

## RRIRPRPPRLPRPRPRPDHHPRP
  shrunken log2 fold change: -0.543

## RRIRERPPRLPRPRPRPLPLPRP
  shrunken log2 fold change: -0.0754

## RRIRHRPPRLPRPRPRPVKFPRP
  shrunken log2 fold change: -0.0191

## RRIRYRPPRLPRPRPRPIMYPRP
  shrunken log2 fold change: -0.0119

## RRIRIRPPRLPRPRPRPKNKPRP
  shrunken log2 fold change: -0.68

## RRIRRRPPRLPRPRPRPLWNPRP
  shrunken log2 fold change: 0.117

## RRIRYRPPRLPRPRPRPEYPPRP
  shrunken log2 fold change: -0.01

## RRIRARPPRLPRPRPRPCYSPRP
  shrunken log2 fold change: -0.525

## RRIRPRPPRLPRPRPRPNTAPRP
  shrunken log2 fold change: -0.23

## RRIRWRPPRLPRPRPRPVVWPRP
  shrunken log2 fold change: 0.626

## RRIRLRPPRLPRPRPRPCYRPRP
  shrunken log2 fold change: -0.145
